Data as given in patent US20200231671A1 (E R SQUIBB AND SONS L L C, published 2020).

Molecular target: T1, human LAG-3 (cell surface) (human, UniProt P18627 23-525)
T1 construct: whole, on cells; also called CHO-human LAG-3
T1 sequence (looked up): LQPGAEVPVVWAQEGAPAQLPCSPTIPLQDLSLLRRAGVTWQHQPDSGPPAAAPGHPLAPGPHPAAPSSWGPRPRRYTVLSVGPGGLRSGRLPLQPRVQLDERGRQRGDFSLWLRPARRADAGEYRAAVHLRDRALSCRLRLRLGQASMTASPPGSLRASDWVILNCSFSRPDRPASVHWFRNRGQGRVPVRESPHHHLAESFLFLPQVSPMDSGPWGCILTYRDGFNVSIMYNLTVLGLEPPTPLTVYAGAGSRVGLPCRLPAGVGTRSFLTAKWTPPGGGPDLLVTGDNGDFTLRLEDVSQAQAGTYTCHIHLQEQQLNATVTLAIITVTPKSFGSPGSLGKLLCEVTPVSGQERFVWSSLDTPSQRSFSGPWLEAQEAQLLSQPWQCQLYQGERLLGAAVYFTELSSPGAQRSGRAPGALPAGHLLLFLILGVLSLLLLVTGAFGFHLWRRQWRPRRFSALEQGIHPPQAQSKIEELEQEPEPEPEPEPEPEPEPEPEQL
Assay: flow cytometry, CHO cells expressing human LAG-3
Description: To test the ability of the antibodies to bind to cell surface LAG-3 protein, the antibodies were incubated with a CHO cell line that had been transfected to express human LAG-3 on the cell surface. The 25F7, 26H10, 25E3, 8B7, 11F2 and 17E5 monoclonal antibodies were serially diluted with cold lx PFAE buffer (1×PBS+2% FBS, 0.02% sodium azide, 2 mM Na EDTA). For the binding reaction, 50 μl of diluted antibody solution was added to a 50 μl cell suspension containing 2×10⁵ cells and the mixture was incubated on ice for 30 minutes. The cells were then washed two times with 1×PFAE buffer. A 1:100 dilution of FITC-labeled goat anti-human kappa light chain antibody (Bethyl Laboratories, Inc., Cat. # A80-115F) was added and the mixture was incubated for 30 minutes at 4° C., followed by washing twice with cold 1×PFAE buffer. After the final wash, 150 μl of cold 1×PFAE containing 10 μg/mL propidium iodide (Roche Applied Science, Cat #1 348 639) was added to each solution and analysis of antibody binding was carried out by flow cytometry using a FACScalibur flow cytometer (BD Bioscience).

B1: 11F2 human monoclonal antibody (antibody, IgG2, V domains shown)
VH: QVQLVQSGAEVKKPGASVKVSCKVSGYTLTEVSMHWVRQAPGKGLEWMGGFDPEDGETIYAQKFQGRVTMTEDTSTDTAYMELSSLRSEDTAVYYCATAFVVVVAASDYWGQGTLVTVSS
VL: EIVLTQSPATLSLSPGERATLSCRASQSVSSYLAWYQQKPGQAPRLLIYDASNRATGIPARFSGSGSGTDFTLTISSLEPEDFAVYYCQQRSNWPWTFGQGTKVEIK
EC50: 15.1 nM
